Measured values from patent US20030113828A1, “Compositions and methods for modulating Syk function” (priority 2001, published 2003).
Values belong to the molecule of their own block, whether it stands above or below them.

Molecular target: T1, integrin β3 cytoplasmic tail (Homo sapiens, UniProt P05106)
T1 construct: made in house
T1 sequence (P05106 742-788 limits assumed): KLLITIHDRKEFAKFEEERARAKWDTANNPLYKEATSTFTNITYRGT
Assay: Affinity chromatography/direct binding of kinase fragments to integrin tail
Conditions: recombinant fragments, direct binding assay
Method: Following incubation, beads were washed and bound protein was analyzed by immunoblotting.
For direct binding assays, model peptides (1 mg) were dissolved in 1 ml buffer containing 20 mM Tris (pH 7.9), 500 mM NaCl, and 6 M urea. To this, 50 ul packed His-Bind® Resin (Novagen, Madison, Wis.) was added and the mixture was rotated for 1 hour at room temperature. Immobilized peptides were washed 5× in above buffer without urea, and resuspended in 500 μl buffer containing 20 mM PIPES pH 6.8, 50 mM NaCl, 3 mM MgCl2, 150 mM sucrose, 50 mM NaF, 40 mM Na4P2O7*10H2O (buffer A) supplemented with 0.1% TritonX-100 and 3 mM MgCl2. Purified GST-fusion proteins were added to 0.5 ml buffer A supplemented with 0.1% TritonX-100 and 3 mM MgCl2. Five μl of total packed resin loaded with various integrin cytoplasmic domain model proteins was added to the GST-fusion protein. The mixture was incubated for 40 minutes at room temperature with continuous rotation. The beads were then washed five times in buffer A with 0.1% TritonX-100 and 3 mM MgCl2. Bound proteins were eluted by boiling in reducing sample buffer, fractionated by SDS PAGE, and immuno-blotted.

binding to the β3 tail: decrease in binding
B1: Zap-70(1-132): Zap-70 truncation lacking the C-terminal half of interdomain A (protein)
chain: MPDPAAHLPFFYGSISRAEAEEHLKLAGMADGLFLLRQCLRSLGGYVLSLVHDVRFHHFPIERQLNGTYAIAGGKAHCGPAELCEFYSRDPDGLPCNLRKPCNRPSGLEPQPGVFDCLRDAMVRDYVRQTWK

binding to the β3 tail: bound
B2: Zap-70(1-337): Zap-70 fragment containing both SH2 and interdomains A and B (protein)
chain: MPDPAAHLPFFYGSISRAEAEEHLKLAGMADGLFLLRQCLRSLGGYVLSLVHDVRFHHFPIERQLNGTYAIAGGKAHCGPAELCEFYSRDPDGLPCNLRKPCNRPSGLEPQPGVFDCLRDAMVRDYVRQTWKLEGEALEQAIISQAPQVEKLIATTAHERMPWYHSSLTREEAERKLYSGAQTDGKFLLRPRKEQGTYALSLIYGKTVYHYLISQDKAGKYCIPEGTKFDTLWQLVEYLKLKADGLIYCLKEACPNSSASNASGAAAPTLPAHPSTLTHPQRRIDTLNSDGYTPEPARITSPDKPRPMPMDTSVYESPYSDPEELKDKKLFLKRDNL
modifications: left off: a dimerising Fc or GST
notes: Zap-70 fragment containing both SH2 and interdomains A and B
